# Source: article PMC3564804
# Like-named read-outs stand apart in the source and are kept apart here.
# Columns and labels:
# [1] = molecular target: PrPRes, native state (UniProt P04156)
# [2] = molecular target: DS-PrPRes (Gdn-HCl treated PrPRes) (UniProt P04156)
Sequence,binding signal (fluorescence ratio) ([1]; 5'-biotin),binding signal (fluorescence ratio) ([2]; 5'-biotin),binding signal (fluorescence ratio) ([1]; 5'-NH2),binding signal (fluorescence ratio) ([2]; 5'-NH2)
GTTTTGTTACAGTTCGTTTCTTTTCCCTGTCTTGTTTTGTTGTCT [Apt2],1.69,4.74,–,–
CTTACGGTGGGGCAATT [Apt1],–,–,1.69,4.74
